Common to all, as to experiment: two-hybrid
In test [1] the target is SARS-CoV accessory protein 8a (yeast two-hybrid fusions) (SARS-CoV Tor2 isolate).
For test [2], the target named is SARS-CoV accessory protein 9b (yeast two-hybrid fusions) (SARS-CoV Tor2 isolate).
For test [3], the target named is SARS-CoV accessory protein ORF14 (yeast two-hybrid fusions) (SARS-CoV Tor2 isolate).

Consider “SARS-CoV accessory protein 9b (yeast two-hybrid fusions) (natural protein)”, for which the α-Galactosidase in test [1] was found to be 1.17; in test [2] it was 2.52. The β-Galactosidase is 6.91 in test [1] and 8.8 in test [2].

With “SARS-CoV accessory protein ORF14 (yeast two-hybrid fusions) (natural protein)”, in test [3], the α-Galactosidase came to 1.84 and the β-Galactosidase amounted to 6.03.

The record behind these values is paper PMC4629423.
